Assay results: the nanobody polyreactivity screen of Harvey et al. (2022)

Experiment: yeast display, Sf9 membrane polyspecificity reagent, FACS + sequencing; frameworks hold sequencing errors
In short: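 Nanobodies from a synthetic yeast display library (Saccharomyces cerevisiae BJ5465), induced 36–48 hours with galactose, were stained 1 hour at 4 °C with 10% biotinylated, detergent-solubilized Sf9 membrane reagent, enriched on streptavidin microbeads, then FACS-sorted. Anti-HA (expression) and streptavidin (reagent binding) fluorescence set low and high (top ~1%) gates. Polyreactivity labels come from the gate of origin. Genes were colony-PCR amplified, MiSeq 2 × 250 sequenced and filtered by CDR length.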

Sequence	polyreactivity (PSR sort gate)
QVQLVESGGGLVQAGGSLRLSCAASGSILGIKVMGWYRQAPGKERELVAAISRRGGSTYYADSVKGRFTISRDNAKNTVYLQMNSLKPEDTAVYYCAATRTARTMGYWGQGTQVTVSS	high polyreactivity
QVQLVESGGGLVQAGGSLRLSCAASGSILGRNAMGWYRQAPGKERELVAGITWSTVSTYYADSVKGRFTISRDNAKNTVYLQMNSLKPEDTAVYYCAAAPNLWAYRRWYYTYYYWGQGTQVTVSS	high polyreactivity
QVQLVESGGGLVQAGGSLRLSCAASGSILGTYAMGWYRQAPGKERELVAAISSSGRTSYADSVKGRFTISRDNAKNTVYLQMNSLKPEDTAVYYCNASNYIVLINDPDAAPWLYDYWGQGTQVTVSS	low polyreactivity
QVQLVESGGGLVQAGGSLRLSCAASGSILGTYAMGWYRQAPGKERELVARISRGGSTNYADSVKGRFTISRDNAKNTVYLQMNILKPEDTAVYYCAKRLYLPESWRYYYWGQGTQVTVSS	high polyreactivity
QVQLVESGGGLVQAGGSLRLSCAASGSILGYYAMGWYRQAPGKERELVAAITASGGSTYYADSVKGRFTISRDNAKNTVYLQMNSLKPEDTAVYYCAARRIAPYGRYDYWGQGTQVTVSS	low polyreactivity
QVQLVESGGGLVQAGGSLRLSCAASGSILGYYAMGWYRQAPGKERELVAITSGDSTYYADSVKGRFTISRDNAKNTVYLQMNSLKPEDTAVYYCNARYSWKYDYWGQGTQVTVSS	high polyreactivity
QVQLVESGGGLVQAGGSLRLSCAASGSILGYYVMGWYRQAPGKERELVAAISWSSGSTYYADSVKGRFTISRDNAKNTVYLQMNSLKPEDTAVYYCNAGGVYDEFNYWGQGTQVTVSS	low polyreactivity
QVQLVESGGGLVQAGGSLRLSCAASGSILHAYAMGWYRQAPGKEREFVAAIRRRGGSTYYADSVKGRFTISRDNAKNTVYLQMNSLKPEDTAVYYCAARFPLIGDSGGKSDYWGQGTQVTVSS	high polyreactivity
QVQLVESGGGLVQAGGSLRLSCAASGSILIWNTMGWYRQAPGKERELVAAISSGASTYYADSVKGRFTISRDNAKNTVYLQMNSLKPEDTAVYYFYVDLPRVLTDDSWGQGTQVTVSS	low polyreactivity
QVQLVESGGGLVQAGGSLRLSCAASGSILKNNAMGWYRLAPGKERELVAAITYSSGSTYYADSVKGRFTISRDNAKNTVYLQMNSLKPEDTAVYYCAAVYRYRYSFSGGYYWGQGTQVTVSS	low polyreactivity
QVQLVESGGGLVQAGGSLRLSCAASGSILNGYAMGLYRQAPGKERELVAAISGSGGSTHYADSVKWRFTISRDNAKNTVYLQMNSLKPEDTAVYYCAAAYKWTYYWGQGTQVTVSS	high polyreactivity
QVQLVESGGGLVQAGGSLRLSCAASGSILNNYAMGWYRQAPGKERELVAAISSSGGTNYADSVKGRFTISRDNAKNTVYLQMYSLKPEDTAVYYCNADVLDGGYDYWGQGTQVTVSS	low polyreactivity
QVQLVESGGGLVQAGGSLRLSCAASGSILQDYAMGWYRQAPGKERELVAAISNSGDSTYYADSVKGRFTISRDNAKNTVYLQMNSLKPEDTAVYYCNAAVYPYALYSGGLDYDYWGQGTQVTVSS	low polyreactivity
QVQLVESGGGLVQAGGSLRLSCAASGSILQRNAMGWYRQAPGKERELVAAISSSGDNTYYADSVKGRITISRDNAKNTVYLQMNSLKPEDTAVYYCATDADIYFQEYDYWGQGTQVTVSS	low polyreactivity
QVQLVESGGGLVQAGGSLRLSCAASGSILQTYAMGWYRQAPGKERELVAAITWSVVSTYYADSVKGRFTISRDNAKNTVYLQMNSLKPEDTAVYYCNARSFGDPGNAYDYWGQGTQVTVSS	high polyreactivity
QVQLVESGGGLVQAGGSLRLSCAASGSILRGYAMGWYRQAPGKERELVAAITWNGGSTYYADSVKGRFTISRDNAKNTVYLQMNSLKPEDTAVYYCNRAIGPYSYPDNYWGQGTQVTVSS	high polyreactivity
QVQLVESGGGLVQAGGSLRLSCAASGSILRLYVMGWYRQAPGKERELVADISDRGGSTYYADSVKGRFTISRDNAKNTVYLQMNSLKPEDTAVYYCAAEWGQSGGGGYYYWGQGTQVTVSS	low polyreactivity
QVQLVESGGGLVQAGGSLRLSCAASGSILRSNAMGWYRQAPGKERELVAVISNDDSTYYADSVKGRFTISRDNATNTVYLQMNSLKPEDTAVYYCNAVYYYFFRWHPIYDSWGQGTQVTVSS	low polyreactivity
QVQLVESGGGLVQAGGSLRLSCAASGSILRTYTMGWYRQAPGKERELVAAISSSGGRTYYADSVKGRFTISRDNAKNTVYLQMNSLKPEDTAVYYCNAGGYRYRSYDYWGQGTQVTVSS	high polyreactivity
QVQLVESGGGLVQAGGSLRLSCAASGSILSAYAMGWYRQAPGKERELVAAISWSGGSTYYADSVKGRFTISRDNAKNTVYLQMNSLKPEDTAVYYCATVNKKWRRYDYWGQGTQVTVSS	high polyreactivity
QVQLVESGGGLVQAGGSLRLSCAASGSILSGYAMVWYRQAPGTERELVAAITSGGDTNYADSVKGRFTISRDNAKNTVYLQMNSLKPEETAVYYCAADPSYLGLFGYDYWGQGTQVTVSS	low polyreactivity
QVQLVESGGGLVQAGGSLRLSCAASGSILSINGMGWYRQAPGKERELVATIDGSDGTTFYADSVKGRFTISRDNAKNTVYLQMNSLKPEDTAVYYCAAENFWQTKEYDYWGQGTQVTVSS	low polyreactivity

Sequence	polyreactivity (PSR sort gate)
QVQLVESGGGLVQAGGSLRLSCAASGSILSQYAMGWYRQAPGKERELVAAITYSGGSTHYADSVKGRFTISRDNAKNTVYLEMNSLKPEDTAVYYCAAKGPRRWGSGLDYWGQGTHVTVSS	low polyreactivity
QVQLVESGGGLVQAGGSLRLSCAASGSILSWYAMGWYRQAPGKERELVAAITSGASTYYADSVKGRFTISRDNAKNTVYLQMNSLKPEDTAVYYCAAYPPSQRAEYDYWGQGTQVTVSS	low polyreactivity
QVQLVESGGGLVQAGGSLRLSCAASGSILSYNTMGWYRHAPGKEREFVACITYSGSRTYYADSVKGRFTISRDKAKNTDYLQMNSLKPEDTAVYYCAKRNYYLLYWGQGTQVTVSS	high polyreactivity
QVQLVESGGGLVQAGGSLRLSCAASGSILSYYVMGWYRQAPGKERELVAAITSDGSTNYADSVKGRFTISRDNAKNTVYLQMNSQKPEDTAVYYCAAVIAWYYGVQDVYYLGLYDYWGQGTQVTVSS	low polyreactivity
QVQLVESGGGLVQAGGSLRLSCAASGSILTDNAMGWYRQAPGKERELVAAITSSGNTNYADSVKGRFTISRDNAKNTVYLQMKSLKPEDTAVYYCAAVSYYKHWTDWLPVGEDYWGQGTQVTVSS	low polyreactivity
QVQLVESGGGLVQAGGSLRLSCAASGSILTDYAMGWYRQAPGKERELVATISNGGSTNYADSVKGRFTISRDNAKNTVYLQMNSLKPEDTAVYYCNAEPGVPSWELDYWGQGTQVTVSS	low polyreactivity
QVQLVESGGGLVQAGGSLRLSCAASGSILTHYAMGRYRPAPGKERELVAAITWRGGSTYYADSVKGRFTISRDNAKNTVYLQMNSLKTEDTAVYYCAADLSYPDWSRYQWDMDYWGQGTQLTVSS	low polyreactivity
QVQLVESGGGLVQAGGSLRLSCAASGSILTYNFMGWYRQAPGKERELVASISWSGGRTYYADSVKGRFTISRDNAKNTVYLQMNSLKPEDTAAAYCAVSQSWYWYYASDYWGQGTQVTVSS	low polyreactivity
QVQLVESGGGLVQAGGSLRLSCAASGSILVDYAMGWYRQAPGKERELVASITRDGSTNYADSVKGRFTISRDNAKNTVYLQMNSLKPEDTAVYYCAAKYAWRLLEMYYWGQGTQVTVSS	low polyreactivity
QVQLVESGGGLVQAGGSLRLSCAASGSILVHYAMGWYRPAPGKEWELVAAISSVGSTNYADSVKGRFTMTRDNAKNTVYLQMNSLKPEDTAVYYCAARASRWYIAVDYWRQGTQVTVSS	low polyreactivity
QVQLVESGGGLVQAGGSLRLSCAASGSILVNMGWYRQPPGKERELVAAIRYGGGRTYYADSVKGRFTISRDNAKNTVYLQMNSLKPEDTAVYYCAASQGRSYYYWGQGTQVTVSS	low polyreactivity
QVQLVESGGGLVQAGGSLRLSCAASGSILVRYAMGWYRQAPGKERELVAAITYSGGSTYYADSVKGRFTISRDNAKNTVYLQMNSLKPEDTAVYYCAADVWWSYYRYDYWGQGTQVTVSS	low polyreactivity
QVQLVESGGGLVQAGGSLRLSCAASGSILVYNAMGWYRQAPGKERELVAAISNTGRTYYAVSVKGRFTISRDIAKNTVYVQMNSLKPEDTAVYYCAAARTSTGSYRYEYWGQGTQGTVSS	high polyreactivity
QVQLVESGGGLVQAGGSLRLSCAASGSILWLNAMGWYRQAPGKERELVADITRGGSTYYADSVKGRFTISRDNAKNTVYLQMNSLKPEDTAVYYCAAKRGKTYQRFDYWGQGTQVTVSS	high polyreactivity
QVQLVESGGGLVQAGGSLRLSCAASGSILWSYAMGWYRQAPGKERELVAAISGSTGSTYYADSVKGRFTISRDNAKNTVYLQMNSLKPEDTAVYYCAAEYYEDYDDYDYWGQGTQVTVSS	low polyreactivity
QVQLVESGGGLVQAGGSLRLSCAASGSILWSYAMGWYRQAPGKERELVAAITSGGSTYYADSVKGRFTISRDNAKNTVYLQMNSLKPEDTAVYYCAADRWRDFWFNEEYWGQGTQVTVSS	high polyreactivity
QVQLVESGGGLVQAGGSLRLSCAASGSILYISARGWYRQAPGKERELVASINSGASTNYADSVKGRFTISRDNAKNTVYLQMNSLKPEDTAVYYCAKSIVNPPHGFKDFDYWGQGTQVTLSS	low polyreactivity
QVQLVESGGGLVQAGGSLRLSCAASGSILYIYAMGWYRQAPGKVRELVAAITGSGGTTNYADSVKGRFTISRDNAKNTVYLQMNSLKPEDTAVYYCNIGSYYSCYDFWGQGTQVTVSS	low polyreactivity
QVQLVESGGGLVQAGGSLRLSCAASGSILYLNARGWYRQAPGKERELVAGISRRGGRTTYADSVKGRFTISRDNAKNTVYLQMNSLKPEDTAVSYCAVSTAYGYGYWGQGTQVTVSS	high polyreactivity
QVQLVESGGGLVQAGGSLRLSCAASGSILYLYAMGWYRPAPGKERELVAAITRIGGSTYYADSVKGRFTISRDNAKNTVYLQMNSLKPEDTAVYYCAAGGTARDDSWGQGTQVTVSS	low polyreactivity
QVQLVESGGGLVQAGGSLRLSCAASGSILYPYAMGWYRQAPGKERELVAAISRGGSTNYADSVKGRFTISRDNAKDTVYLQMNSLKPEDTAVYYCATAYTRFSQRYEYYVIYWQNDYWGQGTQVTVSS	low polyreactivity
